# Source: the supplement of paper PMC12042874
# ± gives the uncertainty stated by the source.
# Test: amyloid nucleation score (Sup35N fusion, yeast selection) (log enrichment); library NNK3; higher = more nucleation; inactive = no reads after selection
# In short: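 The nucleation score is the DiMSum log enrichment of output over input reads, centred on the mode score of non-aggregating sequences. Only sequences with 100 or more input reads were scored, using Illumina sequencing of input and output plasmid inserts. Psi-negative yeast expressing Sup35N fused to peptides of 20 random codons were induced 24 hours with 100 μM copper sulfate and grown 7 days at 30°C on medium lacking adenine and uracil.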
row,Substance,amyloid nucleation score
1,SLFIYGHYEHKHSGSLKFFA,inactive
2,SLFYHTGRS,0.459 ± 0.15
3,SLGAMYVRCDKSWR,inactive
4,SLGFCKVGALLRWFCSQCQG,0.561 ± 0.37
5,SLGKPSHREFYDFVVAAKTT,inactive
6,SLGSCTMFSFSIFWISVQSV,1.34 ± 0.084
7,SLHNM,inactive
8,SLKSPLRCFLILHSPALCLG,inactive
9,SLLCKFIVRNPNSSLIRSAS,inactive
10,SLLSRFIEEGASCRCTRDG,inactive
11,SLLVLETDGCFPVAPLAGDS,-0.926 ± 1.1
12,SLLYYFWTNPGAFSKYIYSM,inactive
13,SLMIG,inactive
14,SLNER,inactive
15,SLPNA,inactive
16,SLRNRLVVTSVDYRMHLRRG,inactive
17,SLSYSSLCSALMWVHVKSYD,inactive
18,SLSYTRCCQNTILIKRYGLE,inactive
19,SLVWTDRNYVSTNGSSCVWL,inactive
20,SLVYMWPDGTFLRWMGAWH,inactive
21,SLWMQGWYSSGLLPFGSIAE,inactive
22,SLWRLMSETVGLKKMQ,inactive
23,SLYTARVFGVNYHFVTSKFF,inactive
24,SMADPRFQESYEDRETYSIS,inactive

row,Substance,amyloid nucleation score
1,SMCPLYFINHAIAVDAMKFF,inactive
2,SMCPPLQRG,inactive
3,SMDNFL,inactive
4,SMGKCRFRCVNIIFYWRWIH,1.25 ± 0.14
5,SMGLFDTQFVGELHVASRLF,inactive
6,SMRKRKRIKLDI,inactive
7,SMRLEFGLSMCVWVVDPSN,0.706 ± 0.15
8,SMSPFRKFLTFWNMGPKRTL,-1.06 ± 2.4
9,SMSPTKLYSSIMVNSWEWLF,inactive
10,SMSSELCLGNRHYG,inactive
11,SMTWSRIAFEIMWNSVCRLI,inactive
12,SNARKGLMNVLRRYWLCDWT,-0.412 ± 0.88
13,SNDIRF,inactive
14,SNDVCVC,inactive
15,SNLCGFCRSHVIKVMLLLSA,inactive
16,SNLVPMQCVIL,inactive
17,SNPLYGSDMQVHYF,1.16 ± 0.14
18,SNPVFFVMLAPLWVAQLSNP,inactive
19,SNQTWMVNET,inactive
20,SNRYKVCWCCPFLFRGVTRL,1.94 ± 0.093
21,SNSFTAFVYTYPWDHLVGVL,-0.195 ± 0.47
22,SNSFVDFRHSDWF,inactive
23,SPFCYRR,inactive
24,SPFLKTTVAGLGSPRELSIR,inactive

row,Substance,amyloid nucleation score
1,SPFPLEPFS,inactive
2,SPGLMRYRRTPLAKSLPWMK,inactive
3,SPGPFR,inactive
4,SPKFVRWGRQVVSSVRA,inactive
5,SPLSRTFTPTYAGDMLLNSS,inactive
6,SPRTNNPTMHRSGW,inactive
7,SPSGSIVAVTPLIWR,inactive
8,SQFDEMLFSKMEPWQVLFTM,inactive
9,SQFLLYTVQQFRWTACHVAF,inactive
10,SQGLYVGPVAPSGTVRRVWM,inactive
11,SQHHPSGSSMWGKWIMLDPR,inactive
12,SQMSPSNDMWLALNV,inactive
13,SQRYLNLVPKYLSRLVMCGI,inactive
14,SQVVTVRCPDSSLCEIFSWG,inactive
15,SRDTVRVLNLLGRKALMRGQ,inactive
16,SREQIVCQVRSITLAYKNSV,inactive
17,SRFEGLASDTDMYSRDSTWR,inactive
18,SRFYETDYSYFSIKSYDAGG,inactive
19,SRGLYKYLGLRFFMYGRVLR,inactive
20,SRITYEGQSRGCTLGNGLKR,inactive
21,SRKWCQFYSCIIYTTNLLGR,1.85 ± 0.069
22,SRLIIVPCCLL,0.478 ± 0.28
23,SRLMWSGNLWRILVWCFTSN,inactive
24,SRMDNSDTIYNILLWTSSYS,inactive

row,Substance,amyloid nucleation score
1,SRNSSIMCFL,inactive
2,SRQGVNQKRTVCWS,inactive
3,SRQKINHQCCYKFCVVDYY,1.56 ± 0.091
4,SRSCNVLSEWRGINVNGWGN,-0.176 ± 1.1
5,SRTLIIIVYFTTNIIVLEFY,inactive
6,SRVHEVLNFCTY,inactive
7,SRWTCLNFVWSTSQHLQWN,inactive
8,SRWVLSWSIVITIHLDMRSL,inactive
9,SRYMARTSDPARYVTPVSNT,inactive
10,SRYTLNAFYMWG,2.02 ± 0.1
11,SSCNLIWCFSSDAILKPLMQ,1.38 ± 0.093
12,SSCSSDLAKQYGDMTFI,inactive
13,SSFAGVFNFRDGTQSQILYV,inactive
14,SSGVTVDGSMCRI,inactive
15,SSKASSFVFMACGPGTEVIG,inactive
16,SSKSSRLNMTVFSKTVMTIM,inactive
17,SSKYISFSTTSYCTGLYRTP,0.896 ± 0.16
18,SSLLYIDRIVLSRTVIPMLL,inactive
19,SSLSDSDGSFLDIMGAYYWA,inactive
20,SSMWF,inactive
21,SSPKMMCSFFDMSTLPFVYD,inactive
22,SSQDVTALLSRLN,inactive
23,SSSESKFLYTDMWHMYWDFC,0.548 ± 0.14
24,SSSFVYFYSLVRFAPTLREY,inactive

row,Substance,amyloid nucleation score
1,SSSMCYRCDLSMFLGSGRSG,inactive
2,SSTMLTNIWHHPNHGVVWDR,inactive
3,SSVKMTDLRH,inactive
4,SSYCGHCNYEPRSSWFILFF,1.61 ± 0.072
5,SSYYISNVSMPTFSEFVVTL,inactive
6,STCMFVGSDSRVRVRYIDIC,inactive
7,STICDFNLICSAFANSVRLR,inactive
8,STIYKPVYFRVVTGFLMW,inactive
9,STPSLGTSF,inactive
10,STSYGLRIVSKNDDYLRTAR,0.511 ± 0.19
11,STSYYPDVRVATRSSYWHFT,1.14 ± 0.18
12,STTGWSMYYWSIRADREVTY,inactive
13,STVEENIY,inactive
14,STVELWQELFAFNTRGGSNG,inactive
15,STVQLYSPIQESVVTVFTNK,inactive
16,STVYSRHIKTDLTNCCKFFY,-0.657 ± 0.98
17,STYFLLILFEGKCFNCSVGK,1.38 ± 0.077
18,SVCLSDRSSGS,inactive
19,SVCSCNAKYARIGMMLFLLG,1.16 ± 0.075
20,SVCWVFYCFFSLWCRLSESR,inactive
